Measurements reported in article PMC2780912.

Legend:
[1] = target: HCV E2 on E2-CT26 cells (Hepatitis C virus (genotype 1a)) (UniProt P27958); test: flow cytometry; details: Flow cytometry: 250 nM aptamer, 1e6 cells, 37 C 15 min; selection buffer 25 mM Tris-HCl, 50 mM KCl, 200 mM NaCl, 0.2 mM EDTA, 5% glycerol, 0.5 mM DTT (pH not …)
[2] = target: GST-E2 (Hepatitis C virus) (UniProt P27958); test: competition (flow cytometry); details: Flow cytometry: 250 nM aptamer, 1e6 cells, 37 C 15 min; selection buffer 25 mM Tris-HCl, 50 mM KCl, 200 mM NaCl, 0.2 mM EDTA, 5% glycerol, 0.5 mM DTT (pH not …); scale: % inhibition of E2 binding to Huh7.5.1 cells

Row | Sequence | Kd [1] [nM] | binding signal [2]
1 | CGCCGTATTAAGATTGGGAGACCTGGTAGA [ZE3] | 3.22 | 
2 | GAATGAGGAATAATCTAGCTCCTTCGCTGA [ZE2] | 1.05 | 80
3 | GGGCCTCGATTTAGTTCGCGGCCATAGGGC [ZE4] | 8.85 | 
4 | TCCATTCATGTAACGAACATAGTTTTGGCA [ZE5] | 4.29 | 
